Starred links: 1 amine or outer side, 2 acyl side, 3 side chain; linkers in the order of their positions; H or OH if unused. Positions of bridges follow the written chain, without caps; N, C: chain ends. Non-standard residues stand in square brackets, D forms with d. No end group written: not given here. KCOmeglumine = N6-(methyl-((2S,3R,4R,5R)-2,3,4,5,6-pentahydroxyhexyl)carbamoyl)-L-lysine, CN(C[C@H](O)[C@@H](O)[C@H](O)[C@H](O)CO)C(=O)NCCCC[C@H](N[*:1])C(=O)[*:2]; KCOpipzaa = N6-(4-(carboxymethyl)piperazine-1-carbonyl)-L-lysine, O=C(NCCCC[C@H](N[*:1])C(=O)[*:2])N1CCN(CC(=O)[*:3])CC1; Trp(7-aza) = N[C@@H](Cc1c[nH]c2ncccc12)C(=O)O; 1Nal = N[C@@H](Cc1cccc2ccccc12)C(=O)O; Gly(NCH2CH2Ph) = O=C(O)CNCCc1ccccc1; 4Pal = N[C@@H](Cc1ccncc1)C(=O)O
B1: TGFb1_003 (peptide)
peptide: {CH2CO}-FWVVNVYDD[Gly(NCH2CH2Ph)]V[1Nal]YHVCG
modifications: thioether N-16
notes: cyclic peptide; C-terminal G is a linker
B2: TGFb1_015 (peptide)
peptide: {CH2CO}-F[1Nal]VVNV[4Pal]D[KCOmeglumine][Gly(NCH2CH2Ph)]V[1Nal]YHVCG-NH2
modifications: thioether N-16
SMILES: CC(C)[C@@H]1NC(=O)CN(CCc2ccccc2)C(=O)[C@H](CCCCNC(=O)N(C)C[C@H](O)[C@@H](O)[C@H](O)[C@H](O)CO)NC(=O)[C@H](CC(=O)O)NC(=O)[C@H](Cc2ccncc2)NC(=O)[C@H](C(C)C)NC(=O)[C@H](CC(N)=O)NC(=O)[C@H](C(C)C)NC(=O)[C@H](C(C)C)NC(=O)[C@H](Cc2cccc3ccccc23)NC(=O)[C@H](Cc2ccccc2)NC(=O)CSC[C@@H](C(=O)NCC(N)=O)NC(=O)[C@H](C(C)C)NC(=O)[C@H](Cc2c[nH]cn2)NC(=O)[C@H](Cc2ccc(O)cc2)NC(=O)[C@H](Cc2cccc3ccccc23)NC1=O
notes: as for B1
B3: TGFb1_028 (peptide)
peptide: {CH2CO}-F[1Nal]V[KCOmeglumine]NV[4Pal]DD[Gly(NCH2CH2Ph)]V[1Nal]YHECG-NH2
modifications: thioether N-16
SMILES: CC(C)[C@@H]1NC(=O)CN(CCc2ccccc2)C(=O)[C@H](CC(=O)O)NC(=O)[C@H](CC(=O)O)NC(=O)[C@H](Cc2ccncc2)NC(=O)[C@H](C(C)C)NC(=O)[C@H](CC(N)=O)NC(=O)[C@H](CCCCNC(=O)N(C)C[C@H](O)[C@@H](O)[C@H](O)[C@H](O)CO)NC(=O)[C@H](C(C)C)NC(=O)[C@H](Cc2cccc3ccccc23)NC(=O)[C@H](Cc2ccccc2)NC(=O)CSC[C@@H](C(=O)NCC(N)=O)NC(=O)[C@H](CCC(=O)O)NC(=O)[C@H](Cc2c[nH]cn2)NC(=O)[C@H](Cc2ccc(O)cc2)NC(=O)[C@H](Cc2cccc3ccccc23)NC1=O
notes: as for B1
B4: TGFb1_018 (peptide)
peptide: {CH2CO}-F[Trp(7-aza)]VVNV[4Pal]D[KCOmeglumine][Gly(NCH2CH2Ph)]V[1Nal]YHVCG-NH2
modifications: thioether N-16
SMILES: CC(C)[C@@H]1NC(=O)CN(CCc2ccccc2)C(=O)[C@H](CCCCNC(=O)N(C)C[C@H](O)[C@@H](O)[C@H](O)[C@H](O)CO)NC(=O)[C@H](CC(=O)O)NC(=O)[C@H](Cc2ccncc2)NC(=O)[C@H](C(C)C)NC(=O)[C@H](CC(N)=O)NC(=O)[C@H](C(C)C)NC(=O)[C@H](C(C)C)NC(=O)[C@H](Cc2c[nH]c3ncccc23)NC(=O)[C@H](Cc2ccccc2)NC(=O)CSC[C@@H](C(=O)NCC(N)=O)NC(=O)[C@H](C(C)C)NC(=O)[C@H](Cc2c[nH]cn2)NC(=O)[C@H](Cc2ccc(O)cc2)NC(=O)[C@H](Cc2cccc3ccccc23)NC1=O
notes: as for B1
B5: TGFb1_016 (peptide)
peptide: {CH2CO}-F[1Nal]VVNV[4Pal]DD[Gly(NCH2CH2Ph)]V[1Nal]YH[KCOmeglumine]CG-NH2
modifications: thioether N-16
SMILES: CC(C)[C@@H]1NC(=O)CN(CCc2ccccc2)C(=O)[C@H](CC(=O)O)NC(=O)[C@H](CC(=O)O)NC(=O)[C@H](Cc2ccncc2)NC(=O)[C@H](C(C)C)NC(=O)[C@H](CC(N)=O)NC(=O)[C@H](C(C)C)NC(=O)[C@H](C(C)C)NC(=O)[C@H](Cc2cccc3ccccc23)NC(=O)[C@H](Cc2ccccc2)NC(=O)CSC[C@@H](C(=O)NCC(N)=O)NC(=O)[C@H](CCCCNC(=O)N(C)C[C@H](O)[C@@H](O)[C@H](O)[C@H](O)CO)NC(=O)[C@H](Cc2c[nH]cn2)NC(=O)[C@H](Cc2ccc(O)cc2)NC(=O)[C@H](Cc2cccc3ccccc23)NC1=O
notes: as for B1
B6: TGFb1_017 (peptide)
peptide: {CH2CO}-F[Trp(7-aza)]VVNV[4Pal]D[KCOpipzaa][Gly(NCH2CH2Ph)]V[1Nal]YHVCG-NH2
modifications: thioether N-16
SMILES: CC(C)[C@@H]1NC(=O)CN(CCc2ccccc2)C(=O)[C@H](CCCCNC(=O)N2CCN(CC(=O)O)CC2)NC(=O)[C@H](CC(=O)O)NC(=O)[C@H](Cc2ccncc2)NC(=O)[C@H](C(C)C)NC(=O)[C@H](CC(N)=O)NC(=O)[C@H](C(C)C)NC(=O)[C@H](C(C)C)NC(=O)[C@H](Cc2c[nH]c3ncccc23)NC(=O)[C@H](Cc2ccccc2)NC(=O)CSC[C@@H](C(=O)NCC(N)=O)NC(=O)[C@H](C(C)C)NC(=O)[C@H](Cc2c[nH]cn2)NC(=O)[C@H](Cc2ccc(O)cc2)NC(=O)[C@H](Cc2cccc3ccccc23)NC1=O
notes: as for B1
B7: TGFb1_009 (peptide)
peptide: {CH2CO}-F[1Nal]VVNV[4Pal]DD[Gly(NCH2CH2Ph)]V[1Nal][4Pal]HVCG
modifications: thioether N-16; not fully specified (C-terminus)
notes: as for B1
B8: TGFb1_027 (peptide)
peptide: {CH2CO}-F[1Nal]VVNV[4Pal]DD[Gly(NCH2CH2Ph)]V[1Nal]YHECG-NH2
modifications: thioether N-16
SMILES: CC(C)[C@@H]1NC(=O)CN(CCc2ccccc2)C(=O)[C@H](CC(=O)O)NC(=O)[C@H](CC(=O)O)NC(=O)[C@H](Cc2ccncc2)NC(=O)[C@H](C(C)C)NC(=O)[C@H](CC(N)=O)NC(=O)[C@H](C(C)C)NC(=O)[C@H](C(C)C)NC(=O)[C@H](Cc2cccc3ccccc23)NC(=O)[C@H](Cc2ccccc2)NC(=O)CSC[C@@H](C(=O)NCC(N)=O)NC(=O)[C@H](CCC(=O)O)NC(=O)[C@H](Cc2c[nH]cn2)NC(=O)[C@H](Cc2ccc(O)cc2)NC(=O)[C@H](Cc2cccc3ccccc23)NC1=O
notes: as for B1
B9: TGFb1_014 (peptide)
peptide: {CH2CO}-F[1Nal]V[KCOmeglumine]NV[4Pal]DD[Gly(NCH2CH2Ph)]V[1Nal]YHVCG-NH2
modifications: thioether N-16
SMILES: CC(C)[C@@H]1NC(=O)CN(CCc2ccccc2)C(=O)[C@H](CC(=O)O)NC(=O)[C@H](CC(=O)O)NC(=O)[C@H](Cc2ccncc2)NC(=O)[C@H](C(C)C)NC(=O)[C@H](CC(N)=O)NC(=O)[C@H](CCCCNC(=O)N(C)C[C@H](O)[C@@H](O)[C@H](O)[C@H](O)CO)NC(=O)[C@H](C(C)C)NC(=O)[C@H](Cc2cccc3ccccc23)NC(=O)[C@H](Cc2ccccc2)NC(=O)CSC[C@@H](C(=O)NCC(N)=O)NC(=O)[C@H](C(C)C)NC(=O)[C@H](Cc2c[nH]cn2)NC(=O)[C@H](Cc2ccc(O)cc2)NC(=O)[C@H](Cc2cccc3ccccc23)NC1=O
notes: as for B1
B10: TGFb1_011 (peptide)
peptide: {CH2CO}-F[1Nal]VVNV[4Pal]D[KCOpipzaa][Gly(NCH2CH2Ph)]V[1Nal]YHVCG-NH2
modifications: thioether N-16
SMILES: CC(C)[C@@H]1NC(=O)CN(CCc2ccccc2)C(=O)[C@H](CCCCNC(=O)N2CCN(CC(=O)O)CC2)NC(=O)[C@H](CC(=O)O)NC(=O)[C@H](Cc2ccncc2)NC(=O)[C@H](C(C)C)NC(=O)[C@H](CC(N)=O)NC(=O)[C@H](C(C)C)NC(=O)[C@H](C(C)C)NC(=O)[C@H](Cc2cccc3ccccc23)NC(=O)[C@H](Cc2ccccc2)NC(=O)CSC[C@@H](C(=O)NCC(N)=O)NC(=O)[C@H](C(C)C)NC(=O)[C@H](Cc2c[nH]cn2)NC(=O)[C@H](Cc2ccc(O)cc2)NC(=O)[C@H](Cc2cccc3ccccc23)NC1=O
notes: as for B1

Tests used:
[1] = target: T1, recombinant human TGF-β1 (R&D systems) (human, UniProt P01137 279-390); test: SPR, TGF-β1 immobilised, single cycle kinetics
T1 construct: Bought protein; immobilised on a CM3 chip (SPR) or on Dynabeads (ELISA), added to cells in the SBE reporter assay; also called TGF-β1 beads
Protocol: Subsequently, 50 μL of 60 mM EDC solution (Global Life Science Technologies Japan Co., Ltd.) and 50 μL of 650 mM NHS solution (Global Life Science Technologies Japan Co., Ltd.) were mixed. Next, the reaction was carried out at a flow rate of 10 μL/min for 420 seconds. Then, 150 μL of 0.2 μM TGF-β solution diluted in 10 mM acetic acid solution (pH 5.0) was prepared and reacted at a flow rate of 10 μL/min for 420 seconds to immobilize TGF-β on the CM3 sensor chip. TGF-β was human-derived TGF-β1 or β2 (recombinant human TGF-β1, 2) and was obtained from R&D systems. After immobilization, capping was performed by reacting with 1.0 M ethanolamine aqueous solution (Global Life Science Technologies Japan Co., Ltd.) at a flow rate of […] for 420 seconds.
A liquid prepared by dissolving each peptide at 10 mM in DMSO solution was diluted with running buffer to prepare a peptide-dissolved solution at a final concentration of 10 μM. Subsequently, 50 nM, 25 nM, 12.5 nM, 5 nM, and 2.5 nM peptide solutions were prepared. Using the above samples, the kinetics of each peptide against TGF-β was obtained by SPR measurement.
The kinetics evaluation model was Single Cycle Kinetics, and curve fitting was performed using Biacore T200 Evaluation Software Version 3.0 (Global Life Science Technologies Japan Co., Ltd.). The binding of various peptides to TGF-β was evaluated by performing least-squares curve fitting on the obtained sensorgram to calculate the KD value.

[2] = target: T1, recombinant human TGF-β1 (R&D systems); test: cell-based or functional assay
[3] = target: T1, recombinant human TGF-β1 (R&D systems); test: cell-based or functional assay; remark: listed apart in the source

T1 sequence (P01137 279-390 limits assumed): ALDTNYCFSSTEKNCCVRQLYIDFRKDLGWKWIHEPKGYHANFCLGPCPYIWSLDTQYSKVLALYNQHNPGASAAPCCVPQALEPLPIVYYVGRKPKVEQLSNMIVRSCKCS

Kd [1] [nM]	SBE reporter % inhibition, peptide 0.075 nM [2] [%]	SBE reporter % inhibition, peptide 0.75 nM [2] [%]	SBE reporter % inhibition, peptide 7.5 nM [2] [%]	SBE reporter % inhibition, peptide 75.0 nM [2] [%]	SBE reporter % inhibition, peptide 0.062 nM [3] [%]	SBE reporter % inhibition, peptide 0.185 nM [3] [%]	SBE reporter % inhibition, peptide 0.56 nM [3] [%]	SBE reporter % inhibition, peptide 1.7 nM [3] [%]	SBE reporter % inhibition, peptide 5.0 nM [3] [%]	SBE reporter % inhibition, peptide 15.0 nM [3] [%]	Binder
0.72	1.6	65.2	97.3	98.8	–	–	–	–	–	–	B1
0.59	0	76.9	98.7	98.4	–	–	–	–	–	–	B2
1.31	–	–	–	–	0.94	6.17	20.4	47.6	73.9	91.7	B3
1.42	22.2	61	97.6	99.9	–	–	–	–	–	–	B4
0.97	6.1	61	97.6	100	–	–	–	–	–	–	B5
1.07	21.7	60.2	97.2	100	–	–	–	–	–	–	B6
0.58	2.7	53	94.8	99.6	–	–	–	–	–	–	B7
1.11	–	–	–	–	2.53	9.14	28.4	59.4	84.9	95.5	B8
0.66	0	64.8	97.2	98.8	–	–	–	–	–	–	B9
0.62	6.1	76.3	97.9	100	–	–	–	–	–	–	B10
